Source: US20240182561A1, “CALCIUM VOLTAGE-GATED CHANNEL AUXILIARY SUBUNIT GAMMA 1 (CACNG1) BINDING PROTEINS AND CACNG1-MEDIATED DELIVERY TO SKELETAL MUSCLE” (Regeneron Pharmaceuticals, Inc., priority 2022, published 2024)

B1: H1M31941N (antibody)
heavy: QVQLVQSGAEVKKPGASVKVSCKASGYAFTTYGITWVRQAPGQGLEWMGWISAYNGNTNYAEKVQGRFTMTTDTSTNTAYMELRSLRSDDTAVYFCARKGHYGSGTYYNPFGFDFWGQGTMVTVSSAKTTPPSVYPLAPGSAAQTNSMVTLGCLVKGYFPEPVTVTWNSGSLSSGVHTFPAVLQSDLYTLSSSVTVPSSTWPSETVTCNVAHPASSTKVDKKIVPRDCGCKPCICTVPEVSSVFIFPPKPKDVLTITLTPKVTCVVVDISKDDPEVQFSWFVDDVEVHTAQTQPREEQFNSTFRSVSELPIMHQDWLNGKEFKCRVNSAAFPAPIEKTISKTKGRPKAPQVYTIPPPKEQMAKDKVSLTCMITDFFPEDITVEWQWNGQPAENYKNTQPIMDTDGSYFVYSKLNVQKSNWEAGNTFTCSVLHEGLHNHHTEKSLSHSPGK
light: EIMLMQSPGTLSLSPGERATLSCRASQSVSSSYLAWYQQKPGQAPRLLIYGASSRATDIPDRFSGSGSGTDFTLTISRLEPEDFAVYFCQQYYGSPWTFGQGTKVEIKRADAAPTVSIFPPSSEQLTSGGASVVCFLNNFYPKDINVKWKIDGSERQNGVLNSWTDQDSKDSTYSMSSTLTLTKDEYERHNSYTCEATHKTSTSPIVKSFNRGEC
B2: H2aM31941N: anti-CACNG1 antibody; HCVR SEQ ID NO: 25, LCVR SEQ ID NO: 29, HC SEQ ID NO: 151, LC SEQ ID NO: 152 (antibody)
heavy: B1 heavy
light: B1 light

Columns and labels:
CACNG1^Hu/Hu myofibers = assay: Antibody binding to single myofibers ex vivo; parameters: species or system mouse; conditions: 100 nM antibody, 30 minutes; FIG. 2
Procedure: (§1) Single myofibers were isolated from either wildtype mice, mice that were homozygous for the deletion of CACNG1 (referred to as CACNG1 knockout mice), or mice that were homozygous for the expression of human CACNG1 in place of mouse CACNG1 (referred to as CACNG1^Hu/Hu). The gastrocnemius muscle was removed, collagenase digested, and single myofibers were isolated, washed, and incubated overnight at 37° C. at 5% CO2, in DMEM+10% horse serum. Following overnight incubation, single myofibers were incubated with 100 nM of each CACNG1 antibody or an isotype control antibody for 30 minutes. Myofibers were then washed twice in DMEM+10% horse serum, and subsequently incubated with 10 μg/mL of fluorescent-conjugated secondary antibodies for 30 minutes, washed twice in DMEM+10% horse serum, and then fixed with 4% paraformaldehyde (PFA) for 15 minutes at room temperature. Single fibers were then washed twice with PBS, stained with Hoechst for 5 minutes, washed once more with PBS, then transferred to microscope slides, cover slipped, and imaged using a Zeiss LSM 710 confocal microscope.

[1] = tested on: wildtype or CACNG1 knockout myofibers; assay: Antibody binding to single myofibers ex vivo; parameters: species or system mouse; conditions: 100 nM antibody, 30 minutes; FIG. 2
Procedure: as §1

C2C12 mouse myotubes = assay: High content imaging-based cell binding assay; conditions: Table 11-1, C2C12; NB = no binding detected
Excerpt: (§2) To test the ability of anti-CACNG1 antibodies described herein to bind, internalize, and deliver payloads, cell binding and indirect cell killing assays were developed with primary human skeletal myoblasts (Cook Myosite Cat #SkMDC SK-1111), C2C12 mouse myoblasts (ATCC Cat #CRL-1772), and HEK293 cells engineered to express human and mouse CACNG1 (HEK293/hCACNG1 and HEK293/mCACNG1, respectively). To generate the HEK293/hCACNG1 and HEK293/mCACNG1 cell lines, FuGEGE 6 (Promega, Cat #E2691/5/3) was used to transfect HEK293HZ cells with a human CACNG1 (hCACNG1; amino acid M1-H222, Accession #NP_000718.1) or mouse CACNG1 (mCACNG1; amino acid M1-H223, Accession #NP_031608.1) expression vector. HEK293HZ is a highly transfectable subclone of HEK293 cells (1) authenticated via STIR (short tandem repeat) profiling to be 81% identical to HEK293 cells sourced from ATCC). The HEK293HZ cell line was maintained in DMEM+10% FBS+1% L-glutamine/penicillin/streptomycin, while HEK293/hCACNG1 and HEK293/mCACNG1 cell lines were maintained in DMEM+10% FBS+1% L-glutamine/penicillin/streptomycin+500 ug/mL G418. […]
(§3) Relative binding of anti-CACNG1 antibodies was assessed across the entire panel of cell lines via imaging analysis. […] Images were acquired with a 10× objective on the Opera Phenix (Perkin Elmer) and relative fluorescence units (RFU) was determined using Harmony software (Perkin Elmer).

HEK293/mCACNG1 = target: T1, HEK293/mCACNG1 (Mus musculus, UniProt O70578); assay: High content imaging-based cell binding assay; conditions: Table 11-1, 293/mCACNG1; NB = no binding detected
T1 construct: mouse CACNG1 (mCACNG1); expressed in transfected cells
T1 sequence (O70578 1-223): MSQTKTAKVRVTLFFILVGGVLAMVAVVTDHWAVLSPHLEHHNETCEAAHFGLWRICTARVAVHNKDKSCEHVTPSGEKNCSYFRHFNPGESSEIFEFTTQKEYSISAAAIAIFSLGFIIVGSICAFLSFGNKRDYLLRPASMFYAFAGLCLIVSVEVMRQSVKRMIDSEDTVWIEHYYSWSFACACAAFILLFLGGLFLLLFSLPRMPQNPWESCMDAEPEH
Excerpt: as §2, §3

HEK293 Hz = assay: High content imaging-based cell binding assay; parameters: species or system human; conditions: Table 11-1, HEK293 Hz; NB = no binding detected
Excerpt: as §2, §3

HEK293 = assay: Indirect (secondary) cell killing assay; type: cell-based, human; conditions: Table 11-3; maximum % kill
Excerpt: as §2, with “ATCC).” for “ATCC). The HEK293HZ cell line was maintained in DMEM+10% FBS+1% L-glutamine/penicillin/streptomycin, while HEK293/hCACNG1 and HEK293/mCACNG1 cell lines were maintained in DMEM+10% FBS+1% L-glutamine/penicillin/streptomycin+500 ug/mL G418.”
An indirect cell killing assay was used to assess the ability of anti-CACNG1 antibodies to internalize and deliver payloads into cells. In vitro cytotoxicity of the anti-CACNG1 antibodies alone or in combination with Fab anti-human Fc or Fab anti-mouse Fc secondary antibodies conjugated to Duocarmycin DM (Moradec, Cat #AH-202-DD-50 or Cat #AM-202-DD-50) were evaluated using the CellTiter-Glo 2.0 Assay Kit (Promega, Cat #G9243), in which the quantity of ATP present is used to determine the number of viable cells in culture. […]

human CACNG1 nanodisc = target: T2, human CACNG1 nanodisc (Homo sapiens, UniProt Q06432); assay: Biacore binding kinetics of anti-CACNG1 antibodies to surface-captured human CACNG1 nanodisc; conditions: 25° C., 1:1 binding model
T2 construct: PΔΔCt RE (C); Flag (C)
Procedure: This Example relates to evaluation of binding kinetics of purified anti-CACNG1 antibodies described herein to a human CACNG1 nanodisc capture surface using real-time surface plasmon resonance biosensor technology with a Biacore T200 instrument.
Equilibrium dissociation constants (KD values) for nanodisc embedded human CACNG1 expressed with a C-terminal […] tag (human CACNG1 nanodisc; concentration 0.82 mg/ml) binding to purified anti-CACNG1 antibodies were determined using a real-time surface plasmon resonance biosensor technology with a Biacore T200 instrument. The CM5 Biacore sensor surface was derivatized by amine coupling with a monoclonal mouse anti-His antibody (Cytiva; Marlborough, MA). All Biacore binding studies were performed in a buffer composed of 0.01M HEPES, 0.15M NaCl, 1 mM CaCl2, 0.5 mM MgCl2, pH 7.4 (HBS-N++ running buffer). […]
The specific SPR-Biacore sensorgrams were obtained by a double referencing procedure. […] Kinetic association (ka) and dissociation […] rate constants were determined by fitting the real-time sensorgrams to a 1:1 binding model using Scrubber v2.0c curve fitting software. Binding dissociation equilibrium constants (KD) and dissociative half-lives (t %) were calculated from the kinetic rate constants as: […]

T2 sequence (Q06432 whole entry): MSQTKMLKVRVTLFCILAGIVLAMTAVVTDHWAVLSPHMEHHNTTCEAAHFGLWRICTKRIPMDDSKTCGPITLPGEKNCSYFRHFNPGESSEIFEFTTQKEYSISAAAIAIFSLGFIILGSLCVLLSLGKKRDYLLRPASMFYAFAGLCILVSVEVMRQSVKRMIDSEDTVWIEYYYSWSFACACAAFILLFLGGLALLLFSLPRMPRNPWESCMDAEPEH

Molecule	binding to CACNG1^Hu/Hu myofibers ex vivo (CACNG1^Hu/Hu myofibers)	binding to wildtype or CACNG1 knockout myofibers [1]	EC50 (C2C12 mouse myotubes) [nM]	EC50 (HEK293/mCACNG1) [nM]	EC50 (HEK293 Hz) [nM]	% KILL (HEK293) [%]	ka (human CACNG1 nanodisc) [M⁻¹ s⁻¹]	kd (human CACNG1 nanodisc) [s⁻¹]
B1	demonstrated binding	did not bind	> 100	> 100	> 100	0.0	–	–
B2	–	–	–	–	–	–	342000	0.000406
